Data reported in US7452965.
Bridge positions count the residues as written; N and C are the ends. Ends that are not written are not given here.

Assays:
[1] = target: HT29 protein (unidentified protease-sensitive cell surface protein on HT29 colon carcinoma cells that the RPM peptide binds); assay: competition with RPM phage on HT29 cells, real time PCR
[2] = target: HT29 protein (unidentified protease-sensitive cell surface protein on HT29 colon carcinoma cells that the RPM peptide binds); assay: competition with RPM displaying phage on HT29 cells, real time PCR
[3] = target: HT29 protein (unidentified protease-sensitive cell surface protein on HT29 colon carcinoma cells that the RPM peptide binds); assay: competition of synthetic peptide with RPM phage on HT29 cells, real time PCR; percent of phage bound without competitor
[4] = target: HT29 protein (unidentified protease-sensitive cell surface protein on HT29 colon carcinoma cells that the RPM peptide binds); assay: competition of non-specific peptide with RPM phage on HT29 cells, real time PCR; 100% means no competition

Row | EC50 [2] [µM] | fold shift of the EC50 of competition against the RPM peptide [2] [fold] | Binder | also measured
1 | – | – | CPIRPMEDC [RPM middle peptide … (SEQ ID NO: 137)] | fold less potent than RPM in competition [1]: > 100 fold
2 | 690 | 100 | CPIEDAPMC [APM peptide (RPM peptide with the arginine mutated to alanine)] | –
3 | 545 | 100 | CPIEDRPAC [RPA peptide (RPM peptide with the methionine mutated to alanine)] | –
4 | 5 | – | CPIEDRPMC (disulfide 1-9 (inferred)) [RPM peptide … (SEQ ID NO: 134), synthetic, oxidized to form a disulfide bond] | percent of RPM phage binding remaining [3]: < 4%
5 | – | – | CKHLGPQLC (disulfide 1-9 (inferred)) [non-specific peptide … (SEQ ID NO: 135), synthetic, oxidized to form a disulfide bond] | percent of RPM phage binding remaining [4]: 100%
